# T1: MLEC peptide on HLA-A*02:01 (human)
# T1 peptide: VLVLKFAEV
# T2: YN010 peptide on HLA-A*02:01 (human)
# T2 peptide: VLALWEAEV
# T3: DNHD1 peptide on HLA-A*02:01 (human)
# T3 peptide: VLELLLAEL
# T4: AL1L1 peptide on HLA-A*02:01 (human)
# T4 peptide: VLELTEAEL
# T5: OR2J1 peptide on HLA-A*02:01 (human)
# T5 peptide: VLALGTAEC
# T6: CHPF2 peptide on HLA-A*02:01 (human)
# T6 peptide: VLPLIVAEA
# T7: LRCH3 peptide on HLA-A*02:01 (human)
# T7 peptide: DLPLRVAEI
# T8: GALP peptide on HLA-A*02:01 (human)
# T8 peptide: VLLLSLAET
# T9: IN80B peptide on HLA-A*02:01 (human)
# T9 peptide: MLPLPVAEG
# T10: ADPRH peptide on HLA-A*02:01 (human)
# T10 peptide: VMHLATAEA
# T11: ULK1 peptide on HLA-A*02:01 (human)
# T11 peptide: VLYLKVAEL
# T12: CEAM3 peptide on HLA-A*02:01 (human)
# T12 peptide: SMPLSVAEG
# T13: CHPF2 peptide on HLA-A*02:01 (human)
# T13 peptide: VLPLLVAEA
# T14: OR2J2 peptide on HLA-A*02:01 (human)
# T14 peptide: VLALGIAEC
# T15: mesothelin (human MSLN, isoform 1, SEQ ID NO:50) peptide on HLA-A*02:01 (human)
# T15 peptide: VLPLTVAEV
# T16: EHF (peptide #10) peptide on HLA-A*02:01 (human)
# T16 peptide: VLLLSLAEI
# T17: mesothelin (human MSLN, isoform 1, SEQ ID NO:50) peptide on HLA-A*02:01 (human)
# T17 peptide: SLLFLLFSL
# B1: Meso530-11B (TCR, V domains shown)
# Valpha: KQEVTQIPAALSVPEGENLVLNCSFTDSAIYNLQWFRQDPGKGLTSLLLIQSSQREQTSGRLNASLDKSSGRSTLYIAASQPGDSATYLCAVRLLFAQGGSEKLVFGKGTKLTVNP
# Vbeta: ETGVTQSPTHLIKTRGQQVTLRCSSQSGHNTVSWYQQALGQGPQFIFQYYREEENGRGNFPPRFSGLQFPNYSSELNVNALELDDSALYLCASSFAGGRSDTQYFGPGTRLTVL
# B2: Meso530-11A (TCR, V domains shown)
# Valpha: GEDVEQSLFLSVREGDSSVINCTYTDSSSTYLYWYKQEPGAGLQLLTYIFSNMDMKQDQRLTVLLNKKDKHLSLRIADTQTGDSAIYFCAETPGYGGATNKLIFGTGTLLAVQP
# Vbeta: DTEVTQTPKHLVMGMTNKKSLKCEQHMGHRAMYWYKQKAKKPPELMFVYSYEKLSINESVPSRFSPECPNSSLLNLHLHALQPEDSALYLCASSHGSLNTEAFFGQGTRLTVV
# B3: Meso20-3B (TCR, V domains shown)
# Valpha: GQSLEQPSEVTAVEGAIVQINCTYQTSGFYGLSWYQQHDGGAPTFLSYNALDGLEETGRFSSFLSRSDSYGYLLLQELQMKDSASYFCAVNDASKIIFGSGTRLSIRP
# Vbeta: DAGVIQSPRHEVTEMGQEVTLRCKPISGHDYLFWYRQTMMRGLELLIYFNNNVPIDDSGMPEDRFSAKMPNASFSTLKIQPSEPRDSAVYFCASSFTSGSYEQYFGPGTRLTVT
# Key:
# [1] = biological target: T1, MLEC peptide on HLA-A*02:01; test: cytokine release
# [2] = biological target: T2, YN010 peptide on HLA-A*02:01; test: cytokine release
# [3] = biological target: T3, DNHD1 peptide on HLA-A*02:01; test: cytokine release
# [4] = biological target: T4, AL1L1 peptide on HLA-A*02:01; test: cytokine release
# [5] = biological target: T5, OR2J1 peptide on HLA-A*02:01; test: cytokine release
# [6] = biological target: T6, CHPF2 peptide on HLA-A*02:01; test: cytokine release
# [7] = biological target: T7, LRCH3 peptide on HLA-A*02:01; test: cytokine release
# [8] = biological target: T8, GALP peptide on HLA-A*02:01; test: cytokine release
# [9] = biological target: T9, IN80B peptide on HLA-A*02:01; test: cytokine release
# [10] = biological target: T10, ADPRH peptide on HLA-A*02:01; test: cytokine release
# [11] = biological target: T11, ULK1 peptide on HLA-A*02:01; test: cytokine release
# [12] = biological target: T12, CEAM3 peptide on HLA-A*02:01; test: cytokine release
# [13] = biological target: T13, CHPF2 peptide on HLA-A*02:01; test: cytokine release
# [14] = biological target: T14, OR2J2 peptide on HLA-A*02:01; test: cytokine release
# [15] = biological target: T15, mesothelin (human MSLN, isoform 1, SEQ …); test: multimer staining
# [16] = biological target: T16, EHF (peptide #10) peptide on HLA-A*02:01; test: cytokine release
# [17] = biological target: T17, mesothelin (human MSLN, isoform 1, SEQ …); test: multimer staining
Binder,binding result [1],binding result [2],binding result [3],binding result [4],binding result [5],binding result [6],binding result [7],binding result [8],binding result [9],binding result [10],binding result [11],binding result [12],binding result [13],binding result [14],binding result [15],binding result [16],binding result [17]
B1,no recognition,no recognition,no recognition,no recognition,no recognition,no recognition,no recognition,no recognition,no recognition,no recognition,no recognition,no recognition,no recognition,no recognition,recognises,–,–
B2,no recognition,no recognition,no recognition,no recognition,no recognition,no recognition,no recognition,no recognition,no recognition,no recognition,no recognition,no recognition,no recognition,no recognition,recognises,no recognition,–
B3,–,–,–,–,–,–,–,–,–,–,–,–,–,–,–,–,recognises

# — patent US20220009992A1 (published 2022)
